{"source": "paper PMC6381605", "about": "“NR4A Nuclear Receptors Target Poly-ADP-Ribosylated DNA-PKcs Protein to Promote DNA Repair”", "binders": {"B1": {"name": "NBRE (dsDNA)", "DNA 1": "GATCCTCGTGCGAAAAGGTCAAGCGCTA", "DNA 2": "GATCTAGCGCTTGACCTTTTCGCACGAG"}}, "molecular_target": "NR4A2 R319A (UniProt Q06219 1-598, R319A)", "sequence (Q06219 whole entry R319A)": "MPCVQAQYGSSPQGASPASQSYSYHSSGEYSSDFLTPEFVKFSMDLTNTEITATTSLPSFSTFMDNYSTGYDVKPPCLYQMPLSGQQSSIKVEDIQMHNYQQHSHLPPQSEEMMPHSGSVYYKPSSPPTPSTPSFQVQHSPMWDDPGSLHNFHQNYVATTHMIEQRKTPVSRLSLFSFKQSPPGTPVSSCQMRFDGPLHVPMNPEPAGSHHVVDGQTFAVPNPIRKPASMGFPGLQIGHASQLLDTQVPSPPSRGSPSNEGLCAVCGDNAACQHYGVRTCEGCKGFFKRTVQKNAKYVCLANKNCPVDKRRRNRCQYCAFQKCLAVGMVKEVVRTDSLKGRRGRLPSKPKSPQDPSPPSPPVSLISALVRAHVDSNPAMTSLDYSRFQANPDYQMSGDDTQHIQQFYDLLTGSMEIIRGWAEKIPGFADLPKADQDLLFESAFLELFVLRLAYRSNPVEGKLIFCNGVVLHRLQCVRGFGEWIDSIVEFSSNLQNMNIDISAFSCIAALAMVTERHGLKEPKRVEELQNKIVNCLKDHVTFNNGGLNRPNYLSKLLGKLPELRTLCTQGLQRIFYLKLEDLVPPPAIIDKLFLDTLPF", "assay": "EMSA; EMSA: 1 ug protein, 10 mM Tris pH 8, 50 mM NaCl, 1 mM EDTA, 5% glycerol, 5 mM DTT, 20 ng/ul dIdC, 1.25 mg/ml BSA, 20 min room temperature; 5% PAGE 0.25x TBE. PAR dot blots left out (PAR is not a defined nucleic acid).", "conditions": "protein: recombinant; tags: GST tag cleaved (PreScission); label: 32P (alpha-32P-dCTP Klenow fill-in); 5' overhang 4 nt (GATC) on both ends before Klenow fill-in"}
{"binder": "B1", "values": [{"measurement": "binding result", "value": "no binding"}]}
